B1: MutLRP6-A3 (ssDNA)
DNA: AGCAGCACAGAGGTTATTTGGCAGCTAAGCAGGCGGCTCACAAAACCATTCGCATGCGGCCCTATGCGTGCTTTTGTGAA
B2: MutLRP6-A2 (ssDNA)
DNA: AGCAGCACTTAGGTCAGATGGCCACATTAGTCTCACCACTACCTTTTTTCCTACCGCCGCCCTATGCGTGCTACCGTGAA

Molecular target: LRP6 (recombinant human LRP-6, Fc chimera) (Homo sapiens, UniProt O75581 20-1370)
Test: SPR; CE-LIF: incubation pH 8.0, 0.155% glutathione, 0.395% Tris-HCl; running buffer 50 mM borate pH 7.6, 20 kV, 25 C (CE-SELEX conditions). SPR: PBST pH 7.4, 0.05% Tween-20, 25 C, protein amine-coupled on CM5. AuNP: room temperature, then 0.9 M NaCl.
Conditions: protein: commercial; tags: Fc chimera; chain copies: 2

Chain of LRP6 (recombinant human LRP-6, Fc chimera) (O75581 20-1370, change not shown): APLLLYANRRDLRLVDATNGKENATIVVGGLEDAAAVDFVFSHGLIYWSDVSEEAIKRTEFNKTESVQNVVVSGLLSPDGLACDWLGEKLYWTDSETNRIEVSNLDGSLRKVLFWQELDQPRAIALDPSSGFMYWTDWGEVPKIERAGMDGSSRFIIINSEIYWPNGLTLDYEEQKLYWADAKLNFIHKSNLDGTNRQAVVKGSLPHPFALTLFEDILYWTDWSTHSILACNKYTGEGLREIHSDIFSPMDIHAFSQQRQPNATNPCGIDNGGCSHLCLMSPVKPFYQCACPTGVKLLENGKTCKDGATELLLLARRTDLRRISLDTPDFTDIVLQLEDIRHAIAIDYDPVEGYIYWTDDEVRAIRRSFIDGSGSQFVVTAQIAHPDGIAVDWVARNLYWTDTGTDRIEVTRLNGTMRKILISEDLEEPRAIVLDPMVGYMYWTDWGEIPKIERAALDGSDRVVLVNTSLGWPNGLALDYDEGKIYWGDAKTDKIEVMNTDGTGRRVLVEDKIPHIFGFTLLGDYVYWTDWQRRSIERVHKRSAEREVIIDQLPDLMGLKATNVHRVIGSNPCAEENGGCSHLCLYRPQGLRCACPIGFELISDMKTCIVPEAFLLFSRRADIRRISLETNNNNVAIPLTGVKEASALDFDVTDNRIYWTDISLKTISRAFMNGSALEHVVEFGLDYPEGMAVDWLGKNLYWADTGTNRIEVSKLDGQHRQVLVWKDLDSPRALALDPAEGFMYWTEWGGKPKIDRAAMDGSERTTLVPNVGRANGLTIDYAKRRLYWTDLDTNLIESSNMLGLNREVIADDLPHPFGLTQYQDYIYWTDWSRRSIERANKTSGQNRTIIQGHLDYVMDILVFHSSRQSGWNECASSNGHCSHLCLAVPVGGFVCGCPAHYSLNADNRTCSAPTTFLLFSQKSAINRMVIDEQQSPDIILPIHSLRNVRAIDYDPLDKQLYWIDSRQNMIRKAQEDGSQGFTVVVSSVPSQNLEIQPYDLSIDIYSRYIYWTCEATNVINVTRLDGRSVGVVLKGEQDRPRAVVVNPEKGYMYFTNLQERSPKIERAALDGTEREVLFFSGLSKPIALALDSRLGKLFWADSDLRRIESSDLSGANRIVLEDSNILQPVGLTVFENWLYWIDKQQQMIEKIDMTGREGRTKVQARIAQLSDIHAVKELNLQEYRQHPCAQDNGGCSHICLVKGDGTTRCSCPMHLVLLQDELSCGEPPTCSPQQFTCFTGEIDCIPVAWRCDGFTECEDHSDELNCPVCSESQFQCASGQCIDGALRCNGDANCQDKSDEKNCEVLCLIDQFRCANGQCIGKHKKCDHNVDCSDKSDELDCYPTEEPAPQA

Row | Binder | Kd [µM] | binding result
1 | B1 | 2.68 | –
2 | B2 | – | no binding

From publication PMC10180154, “Screening and Identification of ssDNA Aptamers for Low-Density Lipoprotein (LDL) Receptor-Related Protein 6”
